The record followed here is article PMC9918532.

The nature of data set [1]: HA-Ub in-cell ubiquitination, anti-HA and anti-K48 blot. The following applies: glycan lost; control: untreated / control shRNA.
The nature of data set [2]: immunoblot of endogenous YTHDF2, hepatoma cells. The settings on record: control: untreated / control shRNA. For orientation: Immunoblotting shows a protein as a band on a membrane.
A short description of data set [3]: nuclear/cytosolic fractionation and immunofluorescence.
Data set [4] is described as follows: CHX chase, endogenous YTHDF2 in HepAD38. The settings on record: glycan lost; control: control shRNA.
Data set [5] can be described thus: CHX chase, Flag-YTHDF2 in HepG2-HBV1.3. The settings on record: glycan lost; control: control shRNA.
Data set [6] is described as follows: CHX chase, HepG2-HBV1.3-shYTHDF2, anti-Flag blot. The settings on record: glycan lost; control: YTHDF2-WT.
Data set [7] can be described thus: in vitro ubiquitination with His-OGT and UDP-GlcNAc. The settings on record: glycan lost; control: YTHDF2-WT.
A short description of data set [8]: actinomycin D chase, RT-qPCR, HepG2-HBV1.3-shYTHDF2. The settings on record: glycan lost; control: YTHDF2-WT. A general note: In qPCR the cycle at which signal appears reflects the starting amount.
The nature of data set [9]: HA-Ub in-cell ubiquitination, Flag IP, MG132. The settings on record: glycan lost; control: YTHDF2-WT.
Data set [10] can be described thus: CHX chase, HepG2-HBV1.3-shYTHDF2. The settings on record: glycan gained; control: untreated Flag-YTHDF2-WT.

B1: YTHDF2: OSMI-1 (protein)
parent chain: MSASSLLEQRPKGQGNKVQNGSVHQKDGLNDDDFEPYLSPQARPNNAYTAMSDSYLPSYYSPSIGFSYSLGEAAWSTGGDTAMPYLTSYGQLSNGEPHFLPDAMFGQPGALGSTPFLGQHGFNFFPSGIDFSAWGNNSSQGQSTQSSGYSSNYAYAPSSLGGAMIDGQSAFANETLNKAPGMNTIDQGMAALKLGSTEVASNVPKVVGSAVGSGSITSNIVASNSLPPATIAPPKPASWADIASKPAKQQPKLKTKNGIAGSSLPPPPIKHNMDIGTWDNKGPVAKAPSQALVQNIGQPTQGSPQPVGQQANNSPPVAQASVGQQTQPLPPPPPQPAQLSVQQQAAQPTRWVAPRNRGSGFGHNGVDGNGVGQSQAGSGSTPSEPHPVLEKLRSINNYNPKDFDWNLKHGRVFIIKSYSEDDIHRSIKYNIWCSTEHGNKRLDAAYRSMNGKGPVYLLFSVNGSGHFCGVAEMKSAVDYNTCAGVWSQDKWKGRFDVRWIFVKDVPNSQLRHIRLENNENKPVTNSRDTQEVPLEKAKQVLKIIASYKHTTSIFDDFSHYEKRQEEEESVKKERQGRGK
For the protein B1, in data set [1], the “other: ubiquitination” value is “increases”. Moreover, in data set [2] (glycan lost), the expression_or_secretion result is “decreases”. Besides, in data set [3] (glycan lost, control: untreated), the localisation_or_trafficking entry is “no change”.

B2: YTHDF2: OGT knockdown (protein)
parent chain: MSASSLLEQRPKGQGNKVQNGSVHQKDGLNDDDFEPYLSPQARPNNAYTAMSDSYLPSYYSPSIGFSYSLGEAAWSTGGDTAMPYLTSYGQLSNGEPHFLPDAMFGQPGALGSTPFLGQHGFNFFPSGIDFSAWGNNSSQGQSTQSSGYSSNYAYAPSSLGGAMIDGQSAFANETLNKAPGMNTIDQGMAALKLGSTEVASNVPKVVGSAVGSGSITSNIVASNSLPPATIAPPKPASWADIASKPAKQQPKLKTKNGIAGSSLPPPPIKHNMDIGTWDNKGPVAKAPSQALVQNIGQPTQGSPQPVGQQANNSPPVAQASVGQQTQPLPPPPPQPAQLSVQQQAAQPTRWVAPRNRGSGFGHNGVDGNGVGQSQAGSGSTPSEPHPVLEKLRSINNYNPKDFDWNLKHGRVFIIKSYSEDDIHRSIKYNIWCSTEHGNKRLDAAYRSMNGKGPVYLLFSVNGSGHFCGVAEMKSAVDYNTCAGVWSQDKWKGRFDVRWIFVKDVPNSQLRHIRLENNENKPVTNSRDTQEVPLEKAKQVLKIIASYKHTTSIFDDFSHYEKRQEEEESVKKERQGRGK
Consider B2, for which the expression_or_secretion entry in data set [2] (glycan lost) was “decreases”.

B3: YTHDF2: shOGT (protein)
parent chain: MSASSLLEQRPKGQGNKVQNGSVHQKDGLNDDDFEPYLSPQARPNNAYTAMSDSYLPSYYSPSIGFSYSLGEAAWSTGGDTAMPYLTSYGQLSNGEPHFLPDAMFGQPGALGSTPFLGQHGFNFFPSGIDFSAWGNNSSQGQSTQSSGYSSNYAYAPSSLGGAMIDGQSAFANETLNKAPGMNTIDQGMAALKLGSTEVASNVPKVVGSAVGSGSITSNIVASNSLPPATIAPPKPASWADIASKPAKQQPKLKTKNGIAGSSLPPPPIKHNMDIGTWDNKGPVAKAPSQALVQNIGQPTQGSPQPVGQQANNSPPVAQASVGQQTQPLPPPPPQPAQLSVQQQAAQPTRWVAPRNRGSGFGHNGVDGNGVGQSQAGSGSTPSEPHPVLEKLRSINNYNPKDFDWNLKHGRVFIIKSYSEDDIHRSIKYNIWCSTEHGNKRLDAAYRSMNGKGPVYLLFSVNGSGHFCGVAEMKSAVDYNTCAGVWSQDKWKGRFDVRWIFVKDVPNSQLRHIRLENNENKPVTNSRDTQEVPLEKAKQVLKIIASYKHTTSIFDDFSHYEKRQEEEESVKKERQGRGK
For B3, the degradation_or_half_life result in data set [4] and in [5] was “decreases” throughout. The “other: ubiquitination” value in data set [1] was “increases”.

B4: YTHDF2: S263A (protein)
parent chain: MSASSLLEQRPKGQGNKVQNGSVHQKDGLNDDDFEPYLSPQARPNNAYTAMSDSYLPSYYSPSIGFSYSLGEAAWSTGGDTAMPYLTSYGQLSNGEPHFLPDAMFGQPGALGSTPFLGQHGFNFFPSGIDFSAWGNNSSQGQSTQSSGYSSNYAYAPSSLGGAMIDGQSAFANETLNKAPGMNTIDQGMAALKLGSTEVASNVPKVVGSAVGSGSITSNIVASNSLPPATIAPPKPASWADIASKPAKQQPKLKTKNGIAGSSLPPPPIKHNMDIGTWDNKGPVAKAPSQALVQNIGQPTQGSPQPVGQQANNSPPVAQASVGQQTQPLPPPPPQPAQLSVQQQAAQPTRWVAPRNRGSGFGHNGVDGNGVGQSQAGSGSTPSEPHPVLEKLRSINNYNPKDFDWNLKHGRVFIIKSYSEDDIHRSIKYNIWCSTEHGNKRLDAAYRSMNGKGPVYLLFSVNGSGHFCGVAEMKSAVDYNTCAGVWSQDKWKGRFDVRWIFVKDVPNSQLRHIRLENNENKPVTNSRDTQEVPLEKAKQVLKIIASYKHTTSIFDDFSHYEKRQEEEESVKKERQGRGK
B4: the degradation_or_half_life entry in [6] is “decreases”. For the same protein, the localisation_or_trafficking result in [3] (glycan lost, control: YTHDF2-WT) was “no change”. Further, the “other: ubiquitination” value in [7] and in data set [9] was “increases” in each case. The “other: stabilisation of target mRNA” value in data set [8] is given as “decreases”.

B5: YTHDF2: TMG (protein)
parent chain: MSASSLLEQRPKGQGNKVQNGSVHQKDGLNDDDFEPYLSPQARPNNAYTAMSDSYLPSYYSPSIGFSYSLGEAAWSTGGDTAMPYLTSYGQLSNGEPHFLPDAMFGQPGALGSTPFLGQHGFNFFPSGIDFSAWGNNSSQGQSTQSSGYSSNYAYAPSSLGGAMIDGQSAFANETLNKAPGMNTIDQGMAALKLGSTEVASNVPKVVGSAVGSGSITSNIVASNSLPPATIAPPKPASWADIASKPAKQQPKLKTKNGIAGSSLPPPPIKHNMDIGTWDNKGPVAKAPSQALVQNIGQPTQGSPQPVGQQANNSPPVAQASVGQQTQPLPPPPPQPAQLSVQQQAAQPTRWVAPRNRGSGFGHNGVDGNGVGQSQAGSGSTPSEPHPVLEKLRSINNYNPKDFDWNLKHGRVFIIKSYSEDDIHRSIKYNIWCSTEHGNKRLDAAYRSMNGKGPVYLLFSVNGSGHFCGVAEMKSAVDYNTCAGVWSQDKWKGRFDVRWIFVKDVPNSQLRHIRLENNENKPVTNSRDTQEVPLEKAKQVLKIIASYKHTTSIFDDFSHYEKRQEEEESVKKERQGRGK
Regarding B5, the degradation_or_half_life entry in data set [10] was “increases”. The expression_or_secretion result in data set [2] (glycan gained) is “increases”. Besides, the localisation_or_trafficking result in [3] (glycan gained, control: untreated) is given as “no change”.
